{"source": "patent US6566080", "about": "(NEW ENGLAND MEDICAL CENTER HOSPITALS, dated 2003)", "key": {"[1]": {"target": "T1, wild-type rat CCK-A receptor (rat, UniProt P30551 1-444)", "T1 sequence": "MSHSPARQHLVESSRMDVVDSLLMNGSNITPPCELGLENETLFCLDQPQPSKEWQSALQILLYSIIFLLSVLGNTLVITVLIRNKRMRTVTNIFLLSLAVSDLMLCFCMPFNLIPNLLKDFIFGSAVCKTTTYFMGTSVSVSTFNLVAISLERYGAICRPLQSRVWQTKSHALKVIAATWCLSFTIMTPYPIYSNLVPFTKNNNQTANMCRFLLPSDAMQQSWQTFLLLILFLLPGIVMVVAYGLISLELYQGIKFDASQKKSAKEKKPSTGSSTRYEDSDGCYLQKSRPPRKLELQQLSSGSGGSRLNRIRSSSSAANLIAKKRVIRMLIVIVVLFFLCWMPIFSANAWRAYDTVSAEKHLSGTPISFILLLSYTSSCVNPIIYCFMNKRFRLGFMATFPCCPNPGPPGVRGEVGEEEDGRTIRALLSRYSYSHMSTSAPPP", "experiment": "cell-based or functional assay"}, "[2]": {"target": "T2, wild-type human CCK-B/gastrin receptor (human, UniProt P32239 1-447)", "T2 construct": "Expressed from hCCKB-pcDNA I in transiently transfected COS-7 cells (also in stably transfected CHO cells); also called hCCK-B; human brain CCK-B receptor", "T2 sequence": "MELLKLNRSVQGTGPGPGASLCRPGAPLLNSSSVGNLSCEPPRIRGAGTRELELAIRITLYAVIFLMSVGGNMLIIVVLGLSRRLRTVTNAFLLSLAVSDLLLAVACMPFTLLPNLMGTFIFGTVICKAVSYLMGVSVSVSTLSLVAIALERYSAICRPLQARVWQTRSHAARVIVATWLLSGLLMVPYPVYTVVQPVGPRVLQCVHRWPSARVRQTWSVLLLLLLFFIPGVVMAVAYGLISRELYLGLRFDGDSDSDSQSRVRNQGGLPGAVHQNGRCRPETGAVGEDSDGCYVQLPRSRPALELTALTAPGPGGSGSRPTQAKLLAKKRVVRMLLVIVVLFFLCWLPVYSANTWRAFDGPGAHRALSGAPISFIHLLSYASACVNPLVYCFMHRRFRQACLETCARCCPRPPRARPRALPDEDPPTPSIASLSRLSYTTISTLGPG", "experiment": "^125I-CCK-8 competition binding on COS-7 cells transfected with hCCK-B-pcDNAI", "experimental": "(§1) COS-7 cells (1.5 ×10^6) were plated in 10-cm culture dishes (Nunc) and grown in Dulbecco's modified Eagle's medium containing 10% fetal calf serum in a 5% CO_2, 95% air incubator at 37° C. After an overnight incubation, cells were transfected (Pacholczyk et al., *Nature* 350:350–354, 1991) with 5–7 μg of a pcDNA I expression vector containing hCCKB (HCCKB-pcDNA I). Twenty-four hours after transfection cells were split into 24-well dishes (2 ×10^4 cells/well) (Costar). After an additional 24 hours, competition binding experiments were performed in Hank's buffer supplemented with 25 mM phenylmethylsulfonyl fluoride (PMSF). […] Equilibrium binding occurred after incubation for 80 min. at 37° C. Cell monolayers were then washed three times, hydrolyzed in 1 N NaOH, and the amount of radioactivity to the receptor was quantified. […] All binding experiments were repeated three to five times.\n(§2) The competition data were analyzed using computer software which is specifically designed for the purpose of radioligand binding assays (Inplot 4.0, GraphPad, San Diego, Calif.). Analyses of competition and saturation binding data can also be performed using computerized non-linear curve fitting (McPherson, G. A., *J Pharmacol Methods*, 14:213–28, 1985)."}, "[3]": {"target": "T2, wild-type human CCK-B/gastrin receptor", "experiment": "^125I-CCK-8 competition binding on transfected COS-7 cells"}, "[4]": {"target": "T3, constitutively active human CCK-B/gastrin receptor mutant MH162 (^325L→E) (human, UniProt P32239 1-447)", "T3 construct": "Transiently expressed in COS-7 cells; also called MH162 Mutant; ^325L→E mutant", "T3 sequence": "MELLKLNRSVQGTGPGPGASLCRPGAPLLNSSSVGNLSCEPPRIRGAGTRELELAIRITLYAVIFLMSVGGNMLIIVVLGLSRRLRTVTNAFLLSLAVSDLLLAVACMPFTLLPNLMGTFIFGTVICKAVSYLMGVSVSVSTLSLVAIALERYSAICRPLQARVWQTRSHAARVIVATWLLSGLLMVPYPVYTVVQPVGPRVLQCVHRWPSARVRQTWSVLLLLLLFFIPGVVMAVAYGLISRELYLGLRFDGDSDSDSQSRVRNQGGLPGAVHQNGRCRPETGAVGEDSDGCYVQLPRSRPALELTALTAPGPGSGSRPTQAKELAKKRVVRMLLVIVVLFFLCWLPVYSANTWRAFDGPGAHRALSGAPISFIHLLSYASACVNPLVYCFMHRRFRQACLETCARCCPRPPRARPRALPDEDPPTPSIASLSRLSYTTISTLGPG", "experiment": "^125I-CCK-8 competition binding on transfected COS-7 cells"}, "[5]": {"target": "T3, constitutively active human …", "experiment": "^125I-CCK-8 competition binding; Ki at wild-type receptor over Ki at MH162", "experimental": "as §1, §2"}, "[6]": {"target": "T2, wild-type human CCK-B/gastrin receptor", "experiment": "cell-based or functional assay"}, "[7]": {"target": "T3, constitutively active human …", "experiment": "cell-based or functional assay"}}, "note": "Ends that are not written are not given here."}
{"binder": "DYMGWMDF (peptide, UniProt P06307 96-103, looked up, not fully specified (residue 2, C-terminus))", "note": "[sulfated CCK-8 (CCK-8s)]", "values": [{"measurement": "CCK-8s stimulated (% human basal) inositol phosphate production", "setting": "[1]", "result": 684, "unit": "% human basal"}]}
{"binder": "QGPWLEEEEEAYGWMDF (peptide, UniProt P01350 76-92, looked up, not fully specified (residue 1, C-terminus), domain: gastrin-17)", "note": "[Gastrin I (unsulphated gastrin-17)]", "values": [{"measurement": "IC50", "setting": "[2]", "result": 0.94, "unit": "nM"}, {"measurement": "Ki", "setting": "[3]", "result": 1.35, "unit": "nM"}, {"measurement": "Ki", "setting": "[4]", "result": 0.8, "unit": "nM"}, {"measurement": "Ratio (Wild-type/Mutant) of Ki", "setting": "[5]", "result": 1.69}, {"measurement": "Signaling potencies of tested ligands, IC50", "setting": "[6]", "result": 0.24, "unit": "nm"}, {"measurement": "Signaling potencies of tested ligands, IC50", "setting": "[7]", "result": 0.2, "unit": "nm"}, {"measurement": "Signaling potencies, Ratio (Wild-type/Mutant)", "setting": "[7]", "result": 1.2}]}
